Results: patent publication US5688912A, “Peptide ligands which bind to von willebrand factor” (Bayer Corporation, priority 1995, dated 1997)
No end group written: not given here.

Columns and labels:
Assay type in all cases: binding
[1] = target: T1, von Willebrand Factor (vWF) (Homo sapiens, UniProt P04275); test: Peptide-Toyopearl affinity column chromatography of Koate; vWF in fractions by ELISA, protein by A280; design: Koate® containing vWF, FVIII, and albumin was a product of Bayer Corp; tissue Bayer Corp. (Clayton, N.C.) Koate; host or cells: plasma-derived concentrate (Koate); conditions: for % vWF by ELISA, flow through / % area of acid peak / % vWF by ELISA, acid / % vWF by ELISA, salt: Table 2; for % vWF by ELISA, flow through / % area of acid peak: 1 ml column; for % area of acid peak: 2% acetic acid peak; for % vWF by ELISA, salt: NaCl gradient eluate
Method: The gel slurry (1 ml wet gel mixed with 2 ml degassed PBS and 1 M sodium chloride buffer) was transferred into a packing device (from PerSeptive Biosystems, Framingham, Mass.) and packed into a PEEK column (0.75 cm×5 cm from Alltech, Deerfield, Ill.) at a flow rate of 8 ml/min. […] The column was washed with at least 4 bed volumes of binding buffer (10 mM HEPES, 100 mM NaCl, 5 mM calcium chloride at pH 7) and elution buffer (2% acetic acid), then equilibrated with binding buffer.
Protein concentrations were monitored by A280 absorbance. Samples were characterized using vWF ELISA. Briefly, anti-vWF antibody (from Accurate Inc. N.Y.) was coated on each well of a microliter plate (96 wells from Corning, N.Y. 14831) overnight using 100 μl solution of antibody diluted 200 times in 0.1M sodium bicarbonate buffer at pH 9.6. Each well was then blocked with 300 μl solution of 1% BSA in PBS for 1 hour at room temperature. The plate was washed 5 times with PBS. Pure vWF and the collected samples were diluted to a concentration range between 0.02 to 0.2 μg/ml using 1 mg/ml BSA in PBS. Each sample (100 μl) was incubated with the anti-vWF coated well for 1 hour at room temperature and the plate was washed 5 times with PBS plus 0.1% Tween 20. A second anti-vWF antibody with horse radish peroxidase (HRP) conjugate (from DAKO, Glostrup, Denmark) at a concentration of 1 to 500 dilution was introduced to each well and incubated for i hour at room temperature. The plate was washed again with PBS plus 0.1% Tween 20 for 5 times. Substrate ABTS (2,2'-azino-bis(3-ethylbenz-thiazoline-6-sulfonic acid)) and H2 O2 were used for the kinetic reading at 410 nm using Bio Kinetics Reader from BioTek (Winooski, Vt.).
Peptide RLRSFY was directly synthesized (25) onto a modified Toyopearl resin (--(β-Ala)2 -Toyopearl) and the resin was packed in a 1 ml column (0.7×2.5 cm). Koate (Bayer's product containing vWF, FVIII and human albumin) was applied to the column at a flow rate of 2 ml/min in binding buffer (10 mM HEPES, 5 mM calcium chloride and 0.1M NaCl, pH 7). After 1 min of washing in binding buffer, a linear gradient from 0.1 to 1M NaCl in HEPES buffer was applied to the column over 5 min. The elution with high salt concentration was maintained for another 1 min, before 2% acetic acid was used to elute the retained protein. […] The remainder was eluted using 2% acetic acid. In a control experiment in which no peptide was attached to the resin (only --(β-Ala)2 -Toyopearl), almost all protein from 0.1 ml Koate flowed through the column under the same conditions used for the peptide-Toyopearl column.
Single conservative amino acid substitutions at the first three positions of RLRSFY were synthesized directly on (β-Ala)2 -Toyopearl. Amino acid substitutions used for both positions of arginine (R) were histidine (H), lysine (K), glutamine (Q), and asparagine (N). Substitutions for leucine (L) include isoleucine (I), valine (V), phenylalanine (F), and tyrosine (Y). These individual substitutions created 12 unique peptide sequences. (SEQ ID NOS: 1 to 12 ) After the resins were packed into 1 ml glass columns, 0.1 ml Koate was applied to each column and eluted with sodium chloride gradient and 2% acetic acid, same as in FIG. 1. Fractions were collected and analyzed for A280 absorbance and ELISA. […] The substitution of the R at the third position from the N-terminus had no effect on the capture of vWF from Koate. […] Maximum vWF binding occurred when L was substituted for V.

[2] = target: T1, von Willebrand Factor (vWF); test: Batch adsorption isotherm of vWF onto peptide-Toyopearl, Langmuir fit; design: Koate® containing vWF, FVIII, and albumin was a product of Bayer Corp; tissue Bayer Corp. (Clayton, N.C.) Koate; host or cells: plasma-derived concentrate (Koate)
Method: Adsorption isotherms were measured in a batch mode. In a siliconized microcentrifuge tube, 0.1 ml wet gel was mixed with vWF solution of 10 mM HEPES, 5 mM calcium chloride and 0.5M sodium chloride at pH 7 in a total volume of 0.3 ml. The microcentrifuge tube was incubated at 25° C. for 20 minutes, then the gel was separated from the solution by microcentrifugation. The concentrations of vWF in solutions were measured both by absorbance at 280 nm with an extinction coefficient of 1.2 for 1 mg/ml vWF and by ELISA.
Interactions between RVRSFY directly synthesized on Toyopearl and vWF were studied through adsorption isotherm measurements. Because vWF consists of a wide range of molecular weights, complex theoretical analyses are required to obtain binding constants from the adsorption isotherms. In addition, different multimers of vWF may have different binding constants. To simplify the analyses, vWF with molecular weight around 1000 kDa was fractionated from Koate using size exclusion chromatography with Bio-Gel A-5M gel (BioRad) and analyzed by nonreducing agarose gel electrophoresis.
An increase of peptide density increases adsorption of vWF. A minimum peptide density, 32 mg peptide Ac-RVRSFYK/ml resin ([…]), is required for the binding of vWF to the peptide. The Langmuir equation was used to fit these isotherms, and the association constants and maximum capacities obtained from curve fits are listed in Table 3. They show an increase of association constant and maximum binding capacity with an increase of peptide density mobilized on the Toyopearl resin.

[3] = target: T1, von Willebrand Factor (vWF); test: Purification of vWF from cryoprecipitate PEG filtrate of human plasma on peptide-Toyopearl column
Method: The starting material called PEG filtrate was processed from human plasma cryoprecipitate at Bayer Corp. (Clayton, N.C.). This material contained vWF, FVIII, significant fibrinogen, fibronectin, and IgM. The PEG filtrate was treated with 1% TNBP (tri-n-butylphosphate) and 0.5 % Tween 20 (from Aldrich) at 30° C. for 3 hours. After the treatment, the mixture was directly injected onto peptide affinity columns.
Confirmation of the purification of vWF on RVRSFY-Toyopearl was performed using PEG filtrate as the starting material (FIG. 2). Inclusion of a 0.15M NaCl wash and an additional 0.35M NaCl wash removed the bulk of the albumin. Bound vWF was eluted with 2% acetic acid.
The PEG filtrate was treated with virus inactivation reagents, 1% TNBP and 0.5% Tween 20 at 30° C. for 3 hours. The treated PEG fitrate was injected directly into the column. […] Approximately 74% of the total vWF was eluted with 0.35M CaCl2 (small peak at 10 min).

[4] = target: T1, von Willebrand Factor (vWF); test: Peptide-Toyopearl affinity column chromatography of Koate; vWF in fractions by ELISA, protein by A280; design: Koate® containing vWF, FVIII, and albumin was a product of Bayer Corp; tissue Bayer Corp. (Clayton, N.C.) Koate; host or cells: plasma-derived concentrate (Koate); conditions: for percentage of vWF eluted: 0.5M calcium chloride

| Substance | % vWF by ELISA, flow through ([1]; 0.1 ml Koate) [%] | % area of acid peak ([1]; 0.1 ml Koate) [%] | % vWF by ELISA, acid ([1]; 2% acetic acid eluate) [%] | % vWF by ELISA, salt [1] [%] | further results |
| --- | --- | --- | --- | --- | --- |
| Ac-RVRSFYK-amide (Ac-RVRSFYK-NH2) [Ac-RVRSFYK-Toyopearl, peptide immobilized to Toyopearl-Epoxy-650M resin through the C-terminal lysine] | – | – | – | – | vWF recovered in all fractions (ELISA) ([1]; 0.1 ml Koate, 0.4 ml column, 54 mg/ml peptide): 87.8%; percentage of vWF eluted ([1]; 0.5M calcium chloride, 30° C.): 89%; vWF captured by the peptide column ([1]; Koate, between pH 6 and 7): about 95%; vWF captured by the peptide column ([1]; Koate, solution pH 5): 91%; captured vWF eluted ([1]; calcium and magnesium concentrations higher than 0.3M): about 80%; release of captured vWF by salt elution ([1]; elution with 2M NaCl, Koate): not released; Association constant ([2]; peptide density 32 mg/ml): 882000 M⁻¹; Maximum capacity ([2]; peptide density 32 mg/ml): 2.32 mg/mL; Association constant ([2]; peptide density 45 mg/ml): 1.12e+06 M⁻¹; Maximum capacity ([2]; peptide density 45 mg/ml): 7.3 mg/mL; Association constant ([2]; peptide density 54 mg/ml): 1.68e+06 M⁻¹; Maximum capacity ([2]; peptide density 54 mg/ml): 9.7 mg/mL; Association constant ([2]; peptide density 60 mg/ml): 2.06e+06 M⁻¹; Maximum capacity ([2]; peptide density 60 mg/ml): 10.33 mg/mL; total vWF eluted ([3]; PEG filtrate treated with TNBP/Tween 20, 54 mg/ml peptide, eluted with 0.35M CaCl2): Approximately 74%; total vWF in the CaCl2 fraction (ELISA) ([4]; 0.1 ml Koate, 0.4 ml column, 54 mg/ml peptide, 0.5M CaCl2): 82.5%; percentage of vWF eluted ([4]; 22° C.): 80%; percentage of vWF eluted ([4]; 26° C.): 85%; vWF captured by the peptide column ([4]; Koate, solution pH 4.6): 65% |
| HLRSFY (not fully specified (C-terminus)) | 0.75 | 26.7 | 32.7 | 0.28 | – |
| KLRSFY (not fully specified (C-terminus)) | 1.03 | 27.1 | 26.94 | 9.83 | – |
| NLRSFY (not fully specified (C-terminus)) | 19.96 | 14.8 | 6.98 | 11.88 | – |
| QLRSFY (not fully specified (C-terminus)) | 29.45 | 9.2 | 2.20 | 11.69 | – |
| RFRSFY (not fully specified (C-terminus)) | 0.20 | 27.8 | 47.96 | 0.07 | – |
| RIRSFY (not fully specified (C-terminus)) | 1.92 | 28.0 | 44.78 | 4.09 | – |
| RLHSFY (not fully specified (C-terminus)) | 1.77 | 24.9 | 50.72 | 2.89 | – |
| RLKSFY (not fully specified (C-terminus)) | 0.60 | 25.1 | 45.58 | 3.59 | – |
| RLNSFY (not fully specified (C-terminus)) | 0.26 | 24.5 | 47.68 | 1.50 | – |
| RLQSFY (not fully specified (C-terminus)) | 0.46 | 20.1 | 50.68 | 0.54 | – |
| RLRSFY (not fully specified (C-terminus)) [RLRSFY-Toyopearl, phage-library-derived peptide directly synthesized onto modified Toyopearl resin (--(β-Ala)2-Toyopearl)] | – | – | – | – | protein that did not bind to the peptide resin or was loosely bound and eluted by sodium chloride ([1]; 0.1 ml Koate): about 60%; A280, flow through ([1]; 0.1 ml Koate (input A280 7.8), flow through fraction ×4 ml): 0.071; A280, acid ([1]; 0.1 ml Koate, 2% acetic acid fraction ×4 ml): 0.070; A280, salt ([1]; 0.1 ml Koate, NaCl gradient 0.1 to 1M fraction ×12 ml): 0.014; vWF recovered in the acid peak ([1]; Koate, 2% acetic acid): Approximately one-half; retention of vWF by column ([1]; Koate, could not be eluted by sodium chloride up to 1M): Most of the vWF was retained; % vWF activity by ELISA, acid ([1]; Table 1, 0.1 ml Koate, 2% acetic acid eluate): 49.78%; % vWF activity by ELISA, salt ([1]; Table 1, 0.1 ml Koate, NaCl eluate): 0.09%; % vWF activity by ELISA, flow through ([1]; Table 1, 0.1 ml Koate, flow through): 1.6%; % recovery (A280 mass balance) ([1]; total protein recovered from column): 95% |
| RVRSFY (not fully specified (C-terminus)) | 0.09 | 30.2 | 55.78 | 0.08 | Association constant ([2]; vWF around 1000 kDa, peptide directly synthesized on Toyopearl, Langmuir fit): 1.31e+06 M⁻¹; purification of vWF (SDS-PAGE) ([3]; PEG filtrate, 0.15M and 0.35M NaCl washes, 2% acetic acid elution): highly purified |
| RYRSFY (not fully specified (C-terminus)) | 1.65 | 27.1 | 51.72 | 0.14 | – |
